Measurements taken from patent EP4703383A1 (Shenzhen Genuine Biomedical Technology Co., Ltd, dated 2026).
Changes are numbered by the printed parent chain.

T1: extracellular segment of human PRLR protein with avi-(his)6 tag (hPRLR-ECD-avi-his) (human, UniProt P16471 25-234)
T1 construct: The assays say only 'monomeric human PRLR extracellular domain / ECD'; also called human PRLR extracellular domain; monomeric PRLR ECD
T1 sequence: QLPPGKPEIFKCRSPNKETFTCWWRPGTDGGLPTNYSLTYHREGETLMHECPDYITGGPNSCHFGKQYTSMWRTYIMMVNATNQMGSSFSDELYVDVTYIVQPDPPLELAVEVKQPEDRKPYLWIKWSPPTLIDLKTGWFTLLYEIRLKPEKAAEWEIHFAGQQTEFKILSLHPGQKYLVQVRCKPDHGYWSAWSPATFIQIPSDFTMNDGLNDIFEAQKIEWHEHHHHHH

B1: P-PR-C08H (antibody, V domains shown)
VH: QVQLQQPGSELVRPGASVKLSCKASGFTFTTYWVHWVKQRPGQGLEWIGNISPGSGSTNYDEKFKSKASLTVDTFSNTAYMQLSSLTSEDSAVYYCIRHSGNYFNAMDYWGQGTTVTVSS
VL: DIVMTQAAPSVPVTPGESVSISCRSSKSLLHSNGNTYLYWFLQRPGQSPQLLIYRMSNLASGVPDRFSGSGSGTAFTLRISRVEAEDVGVYYCMQHLEYPLTFGAGTKLELK
notes: also called Antibody No. 6
B2: P-PR-C06H (antibody, V domains shown)
VH: B1 VH with T115S
VL: B1 VL with P12F, R55Q, L59R, F67L, L101F, A105G, L111I
notes: also called Antibody No. 4
B3: P-PR-C12H (antibody, V domains shown)
VH: B1 VH with T30A, G56V, V116L
VL: B1 VL with P12L, L52V, L101F
notes: also called Antibody No. 7
B4: P-PR-C04H (antibody, V domains shown)
VH: B1 VH with S55G
VL: B1 VL with L101F, A105S, L111I
notes: also called Antibody No. 2
B5: P-PR-B09W (antibody, V domains shown)
VH: B1 VH with Y32F, S55G, G56T, T115S
VL: B1 VL
notes: also called Antibody No. 10
B6: P-PR-C02H (antibody, V domains shown)
VH: B1 VH with K19R, T115S
VL: B1 VL with A8T, T14A, S32T, N35Y
notes: also called Antibody No. 1
B7: P-PR-C05H (antibody, V domains shown)
VH: B1 VH with Y32F, G56T, D61N, S66N, T115S
VL: B1 VL with V90I
notes: also called Antibody No. 3
B8: P-PR-D01H (antibody, V domains shown)
VH: B1 VH with S55G, S84G, V116L
VL: B1 VL
notes: also called Antibody No. 8
B9: P-PR-H07W (antibody, V domains shown)
VH: B1 VH with T30A, G56V, V116L
VL: B1 VL with L101F, A105G, L111I
notes: also called Antibody No. 13
B10: P-PR-H11W (antibody, V domains shown)
VH: B1 VH with Y32F, G56T, D61N, S66N, T115S
VL: B1 VL with L101F, A105G, L111I
notes: also called Antibody No. 14
B11: P-PR-D04H (antibody, V domains shown)
VH: QVQLQQPGSELVRPGASVKLSCKASGYTFTSYWMHWVKQRPGQGLEWIGNIYPGSGSTNYDEKFKSKATLTVDTSSSTAYMQLSSLTSEDSAVYYCTRGNYRYYFDYWGQGTTLTVSS
VL: not shown
notes: also called Antibody No. 9
B12: HP-PR01C02 (antibody, V domains shown)
VH: DVHLVESGPGLVKPSQSLSLTCTVTGYSITSDYAWNWIRQFPGNKLEWMGYISYSGSTGYSPSLKSRVSITRDTSKNQFFLQLNSVTTEDTATYFCARNNWAFDFWGQGTTLTVSS
VL: DIVLTQSPAIMSASPGEKVTMTCSASSSVNYMHWYQQKSGTSPKRWIYDTSKLASGVPARFSGSGSGTSYSLTISSMEAEDAATYYCQQWSSNPLTFGAGTKLELK
notes: also called Antibody No. 22
B13: H-PR-B06 (antibody, V domains shown)
VH: DVKLVESGGGLVKPGGSLKLACAASGFTFSSYTMSWVRQTPEKRLEWVATISSGGSYTYYPDSVKGRFTISRDNAKNTLYLQLSSLKSEDTAMYYCTRDRYYSTTPDWYFDVWGAGTTVTVSS
VL: DIVLTQSPATLSVTPGDSVSLSCRATQIIFNNLHWYQQKSHESPRLLITYTSQSISGIPSRFSGSGSGTDFTLTINSVETEDFGMYFCQQSNTWPRTFGGGTKLEIK
notes: also called Antibody No. 18
B14: H-PR-B03 (antibody, V domains shown)
VH: QVQLKESGPGLVAPSQSLSITCTVSGFSLTGFGVNWFRQPPGRGLEWLGMIWGDGSTDYNSALKSRLSISKDNSKSQVFLKMNSLQTDDTARYYCARVLYYYGGNSFAYWGQGTLVTVSA
VL: DVLMTQTPLSLPVSLGDQASISCRSSQSIVHSNGNTYLEWYLQKPGQSPKLLIYKVSSRFSGVPDRFSGSGSGTDFTLKISRVEAEDLGVYYCFQGSHVPYTFGGGTKLEIK
notes: also called Antibody No. 17
B15: HP-PR02E11 (antibody, V domains shown)
VH: QVQLQQSGPGLVAPSQSLSITCTVSGFSLTSYGVNWVRQPPGKGLEWLGIIGAGGSTNYNSALMSRLSISKDNSKSQVFLKMNSLQTDDTAMYYCARSLYYYGSSSFAYWGQGTLVTVSA
VL: B14 VL with V2I, L3V, S58N, Y101W, I111L
notes: also called Antibody No. 19
B16: P-PR-C04W (antibody, V domains shown)
VH: B1 VH
VL: B1 VL
notes: also called Antibody No. 15
B17: P-PR-H04W (antibody, V domains shown)
VH: B1 VH with T115S
VL: B1 VL with L101F, A105S, L111I
notes: also called Antibody No. 12
B18: P-PR-G02W (antibody, V domains shown)
VH: B1 VH with V116L
VL: B1 VL
notes: also called Antibody No. 11
B19: HP-PR01D12 (antibody, V domains shown)
VH: EVMLVESGGGLVQPGGSRKLSCAASGFTFSSFGMNWVRQAPEKGLEWVAYISSGSSIIYYADTVKGRFTISRDNPKNTLFLQMTSLRSEDTAMYYCTRFYGYIPFDYWGQGTTLTVSS
VL: DIVMTQSPAIMSASPGEKVTMTCSASSSLIYMHWYQQKSSTSPKLWIYDTSKLASGVPGRFSGSGSGNSYSLTTSSMEAEDVATYYCFQGSGYPLTFGGGTKLEIK
notes: also called Antibody No. 20

Each binder was assayed against T1, extracellular segment of human PRLR … (assay: ELISA, coated antigen 1 ug/mL, antibody 10 ug/mL).

How did the “absorbance at 450nm” value turn out when B1 was run?
Its value is 2.2.

Which “absorbance at 450nm” value does the source give for B2 here?
Its value is 2.1.

How did the “absorbance at 450nm” value turn out when B3 was run?
Its value is 2.24.

How did the “absorbance at 450nm” value turn out when B4 was run?
The value was 2.15.

How did the “absorbance at 450nm” value turn out when B5 was run?
The value was 2.32.

B6 was tested. Which “absorbance at 450nm” value did it give?
Its value is 2.14.

How did the “absorbance at 450nm” value turn out when B7 was run?
Its value is 2.14.

Which “absorbance at 450nm” value does the source give for B8 here?
The value was 2.02.

With B9 as the binder, how does the “absorbance at 450nm” value read?
Its value is 2.45.

B10 was tested. Which “absorbance at 450nm” value did it give?
Its value is 2.32.

The binders below were run against T2, recombinant mesothelin protein with the same tag (assay: ELISA, coated antigen 1 ug/mL, antibody 10 ug/mL).
T2 construct: Control antigen of the species-specific ELISA; also called Control protein

With B11 as the binder, how does the “absorbance at 450nm” value read?
The value was 0.065.

With B12 as the binder, how does the “absorbance at 450nm” value read?
Its value is 0.072.

With B13 as the binder, how does the “absorbance at 450nm” value read?
The value was 0.054.

B14 was tested. Which “absorbance at 450nm” value did it give?
Its value is 0.067.

For B15, which “absorbance at 450nm” value is on record?
Its value is 0.111.

With B1 as the binder, how does the “absorbance at 450nm” value read?
The value was 0.065.

Which “absorbance at 450nm” value does the source give for B16 here?
Its value is 0.095.

Which “absorbance at 450nm” value does the source give for B17 here?
The value was 0.064.

With B18 as the binder, how does the “absorbance at 450nm” value read?
The value was 0.07.

How did the “absorbance at 450nm” value turn out when B2 was run?
Its value is 0.084.

With B3 as the binder, how does the “absorbance at 450nm” value read?
Its value is 0.091.

With B4 as the binder, how does the “absorbance at 450nm” value read?
The value was 0.09.

With B5 as the binder, how does the “absorbance at 450nm” value read?
Its value is 0.102.

With B6 as the binder, how does the “absorbance at 450nm” value read?
Its value is 0.098.

B7 was tested. Which “absorbance at 450nm” value did it give?
Its value is 0.116.

With B8 as the binder, how does the “absorbance at 450nm” value read?
Its value is 0.068.

With B9 as the binder, how does the “absorbance at 450nm” value read?
Its value is 0.069.

For B10, which “absorbance at 450nm” value is on record?
The value was 0.054.

With B19 as the binder, how does the “absorbance at 450nm” value read?
Its value is 0.09.

The binders below were run against T1, extracellular segment of human PRLR … (assay: BLI (Octet), antibody on Protein A sensor, monomeric PRLR ECD in solution, 1:1 fit).

How did the Kd turn out when B1 was run?
The Kd was 1.77 pM.

What about the koff of the same binder?
The koff was 2.44e-07 s⁻¹.

What about the kon of the same binder?
The kon was 138000 M⁻¹ s⁻¹.

With B2 as the binder, how does the Kd read?
Its Kd is 2710 pM.

What about the koff of the same binder?
Its koff is 0.000663 s⁻¹.

What about the kon of the same binder?
Its kon is 244000 M⁻¹ s⁻¹.

With B3 as the binder, how does the Kd read?
The Kd was 2700 pM.

And the koff?
The koff was 0.00033 s⁻¹.

What about the kon of the same binder?
Its kon is 122000 M⁻¹ s⁻¹.

Which results are given for B5?
Kd: 1530 pM; koff: 0.000287 s⁻¹; kon: 187000 M⁻¹ s⁻¹

For B6, which Kd is on record?
Its Kd is 1.6 pM.

And the koff?
Its koff is 2.44e-07 s⁻¹.

And the kon?
Its kon is 153000 M⁻¹ s⁻¹.

B7 was tested. Which Kd did it give?
Its Kd is < 1 pM.

And the koff?
The koff was 1.3e-07 s⁻¹.

What about the kon of the same binder?
The kon was 209000 M⁻¹ s⁻¹.

B8 was tested. Which Kd did it give?
The Kd was 1.05 pM.

And the koff?
Its koff is 2.44e-07 s⁻¹.

And the kon?
Its kon is 232000 M⁻¹ s⁻¹.
